Substitutions are numbered along the chain they refer to.
B1: 110 (VR12112) (antibody, V domains shown)
VH: QSVEESGGRLVTPGTPLTLTCTVSGFSLSSYAMIWVRQAPGKGLEWIGIINSSDNTHYATWAKGRFTISKTSTTVDLKITSPTTEDTATYFCARDPYDYGYGWYFDLWGPGTLVTVSS
VL: AQVLTQTPSPVSAAVGGTVTINCQASQSVFNNKNLAWYQQKPGQPPKLLIYKASTLASGVSSRFKGSGSGTQFALTISGVQCDDAATYYCQGEFSCSSTDCVTFGGGTEVVVK
notes: also called OX110; antibody 110
B2: 116 (VR12117) (antibody, V domains shown)
VH: QSVEESGGRLVTPGTPLTLTCTVSGFSLSNYAMSWVRQAPGKGLEWIGIIYTTGFTYYASWVKGRFTISKTSTTVDLKITSPTTEDTATYFCARGLATYVSPPTRLDLWGQGTLVTVSS
VL: AQVLTQTPSPVSAAVGGTVTINCQASQSIYNSKNLAWYQQKPGQPPKLLIYSASTLASGVPSRFKGSGSGTQFTLTISDLECDDAATYYCQGEFSCSSVDCATFGGGTEVVVK
notes: also called OX116
B3: 77A (VR11851) (antibody, V domains shown)
VH: QSVEESGGRLVTPGTPLTLTCTVSGFSLSSYAMSWVRQAPGKGLEWIGIISSSGTTYYASWAKGRFTISKTSTTVDLKITSPTTEDTATYFCARVDYYSSGWGGLWGPGTLVTVSS
VL: AVEMTQTPASMSAAVGGTVTIKCQASEDIYSNLAWYQQKPGQPPKLLIYGASTLASGVPSRFKGSGSGTEYTLTISGVQCDDAATYYCQCTYDTSSYGNTFGGGTEMVVE
notes: also called OX77a; antibody 77a
B4: 111 (VR12113) (antibody, V domains shown)
VH: QSVEESGGRLVTPGTPLTLTCTASGFSLSTYAMSWVRQAPGKGLEWIGIISSSGSTYYASWAKGRFTISKTSTTVDLKITSPTTEDTATYFCARETWYWLDLWGQGTLVTVSS
VL: B3 VL with M11V, K22N, T91A, T94S, N99T, T100P, M107V, E110K
notes: also called OX111

Target: T1, CD1a[H86 A] (human, UniProt P06126 18-295, limits assumed)
T1 construct: also called point mutant CD1a[H86A]
T1 chain: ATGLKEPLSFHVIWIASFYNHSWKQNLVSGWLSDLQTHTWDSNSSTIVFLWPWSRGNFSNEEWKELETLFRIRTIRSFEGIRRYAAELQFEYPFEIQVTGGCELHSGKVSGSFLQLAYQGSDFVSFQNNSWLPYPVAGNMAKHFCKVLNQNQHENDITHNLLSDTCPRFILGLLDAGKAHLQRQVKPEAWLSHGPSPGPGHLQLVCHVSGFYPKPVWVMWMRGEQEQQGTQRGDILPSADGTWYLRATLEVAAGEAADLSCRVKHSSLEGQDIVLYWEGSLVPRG
Assay: epitope mapping experiments (not described)

| Binder | binding result |
| --- | --- |
| B1 | no binding |

What follows are binders tested against T2, human CD1b expressed on HEK-293 cells (human, UniProt P29016 18-333; P61769 21-119) (assay: flow cytometry, HEK-293 cells, 0.316 µg/ml antibody).
T2 construct: also called HEK - CD1b

| Binder | Fluorescence Intensity Geomean (normalized to background) [fold over background] |
| --- | --- |
| B2 | 1 |
| B3 | 1.1 |
| B4 | 1 |
| B1 | 1 |

The binders below were run against T3, human CD1c expressed on HEK-293 cells (human, UniProt P29017 18-333; P61769 21-119) in the same assay as above.
T3 construct: also called HEK - CD1c

| Binder | Fluorescence Intensity Geomean (normalized to background) [fold over background] |
| --- | --- |
| B2 | 1.1 |
| B3 | 1 |
| B4 | 1 |
| B1 | 0.9 |

The binders below were run against T4, human CD1d expressed on HEK-293 cells (human, UniProt P15813 20-335; P61769 21-119) in the same assay as above.
T4 construct: also called HEK - CD1d

| Binder | Fluorescence Intensity Geomean (normalized to background) [fold over background] |
| --- | --- |
| B2 | 1 |
| B3 | 1 |
| B4 | 0.9 |
| B1 | 1 |

The binders below were run against T5, human CD1a expressed on cells (human, UniProt P06126 17-327; P61769 21-119) in the same assay as above.
T5 construct: also called HEK - CD1a; C1R - CD1a

| Binder | Fluorescence Intensity Geomean (normalized to background) [fold over background] |
| --- | --- |
| B2 | 36.5 |
| B3 | 58.6 |
| B4 | 30.8 |
| B1 | 38.3 |
